Data: article PMC8089094, “Mispair-bound human MutS–MutL complex triggers DNA incisions and activates mismatch repair” (Cell Research, 2021)
Blank lines part the entries; values can stand above or below the molecule they belong to.

Columns and labels:
[1] = test system: LacI; experiment: EMSA; conditions: IPTG; EMSA: 10 mM HEPES pH 7.5, 110 mM KCl, 5 mM MgCl2, 1 mM DTT, 200 ug/mL BSA, 1 pmol cold homoduplex, +/- 2 mM ATP, 20 min on ice; sucrose gradient: 10 mM …
[2] = molecular target: T1, human MutSα (MSH2·MSH6 heterodimer), wild type (human, UniProt P43246 1-934; P52701 1-1360); experiment: native gel or EMSA; with ATP (2 mM); 0.1 pmol 32P-labeled 100-bp duplex with a G–T mismatch, 2 pmol MutSα or MutLα; more slowly migrating MutSα–MutLα–DNA complex; 10 mM HEPES pH 7.5, 5 mM MgCl2, 1 mM DTT, 110 mM KCl, 20 min on ice; 4% non-denaturing polyacrylamide; conditions: both partners purified
T1 construct: MSH2 subunit of human MutSα; MSH6 subunit of human MutSα; also called WT MutSα; MSH2WT·MSH6WT; source: insect cells, purified to homogeneity
T1 sequence (P43246 whole entry, chain 1 of 2): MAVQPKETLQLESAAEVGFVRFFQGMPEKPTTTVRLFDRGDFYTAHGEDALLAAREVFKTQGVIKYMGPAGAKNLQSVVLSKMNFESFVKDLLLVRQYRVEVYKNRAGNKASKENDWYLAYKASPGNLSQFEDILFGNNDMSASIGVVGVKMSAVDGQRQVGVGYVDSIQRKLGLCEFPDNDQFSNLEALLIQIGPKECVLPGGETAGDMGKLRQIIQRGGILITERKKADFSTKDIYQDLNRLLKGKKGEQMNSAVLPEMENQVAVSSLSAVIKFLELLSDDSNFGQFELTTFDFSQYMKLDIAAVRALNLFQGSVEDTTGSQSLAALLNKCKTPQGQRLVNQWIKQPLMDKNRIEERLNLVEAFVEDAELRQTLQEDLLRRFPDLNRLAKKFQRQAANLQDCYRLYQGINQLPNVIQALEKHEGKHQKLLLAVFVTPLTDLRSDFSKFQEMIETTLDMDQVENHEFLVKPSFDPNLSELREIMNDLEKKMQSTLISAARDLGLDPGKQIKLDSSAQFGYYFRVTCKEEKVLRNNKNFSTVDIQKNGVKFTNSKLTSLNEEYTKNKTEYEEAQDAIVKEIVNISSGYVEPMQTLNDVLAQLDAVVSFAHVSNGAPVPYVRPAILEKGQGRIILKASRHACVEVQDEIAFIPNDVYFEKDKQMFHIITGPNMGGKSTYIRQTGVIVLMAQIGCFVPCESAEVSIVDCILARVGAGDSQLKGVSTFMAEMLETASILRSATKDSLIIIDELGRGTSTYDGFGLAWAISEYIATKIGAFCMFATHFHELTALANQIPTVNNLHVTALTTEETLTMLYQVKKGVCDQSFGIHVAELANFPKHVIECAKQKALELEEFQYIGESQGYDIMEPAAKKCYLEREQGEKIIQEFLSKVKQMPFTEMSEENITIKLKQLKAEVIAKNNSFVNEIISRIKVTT
T1 sequence (P52701 whole entry, chain 2 of 2): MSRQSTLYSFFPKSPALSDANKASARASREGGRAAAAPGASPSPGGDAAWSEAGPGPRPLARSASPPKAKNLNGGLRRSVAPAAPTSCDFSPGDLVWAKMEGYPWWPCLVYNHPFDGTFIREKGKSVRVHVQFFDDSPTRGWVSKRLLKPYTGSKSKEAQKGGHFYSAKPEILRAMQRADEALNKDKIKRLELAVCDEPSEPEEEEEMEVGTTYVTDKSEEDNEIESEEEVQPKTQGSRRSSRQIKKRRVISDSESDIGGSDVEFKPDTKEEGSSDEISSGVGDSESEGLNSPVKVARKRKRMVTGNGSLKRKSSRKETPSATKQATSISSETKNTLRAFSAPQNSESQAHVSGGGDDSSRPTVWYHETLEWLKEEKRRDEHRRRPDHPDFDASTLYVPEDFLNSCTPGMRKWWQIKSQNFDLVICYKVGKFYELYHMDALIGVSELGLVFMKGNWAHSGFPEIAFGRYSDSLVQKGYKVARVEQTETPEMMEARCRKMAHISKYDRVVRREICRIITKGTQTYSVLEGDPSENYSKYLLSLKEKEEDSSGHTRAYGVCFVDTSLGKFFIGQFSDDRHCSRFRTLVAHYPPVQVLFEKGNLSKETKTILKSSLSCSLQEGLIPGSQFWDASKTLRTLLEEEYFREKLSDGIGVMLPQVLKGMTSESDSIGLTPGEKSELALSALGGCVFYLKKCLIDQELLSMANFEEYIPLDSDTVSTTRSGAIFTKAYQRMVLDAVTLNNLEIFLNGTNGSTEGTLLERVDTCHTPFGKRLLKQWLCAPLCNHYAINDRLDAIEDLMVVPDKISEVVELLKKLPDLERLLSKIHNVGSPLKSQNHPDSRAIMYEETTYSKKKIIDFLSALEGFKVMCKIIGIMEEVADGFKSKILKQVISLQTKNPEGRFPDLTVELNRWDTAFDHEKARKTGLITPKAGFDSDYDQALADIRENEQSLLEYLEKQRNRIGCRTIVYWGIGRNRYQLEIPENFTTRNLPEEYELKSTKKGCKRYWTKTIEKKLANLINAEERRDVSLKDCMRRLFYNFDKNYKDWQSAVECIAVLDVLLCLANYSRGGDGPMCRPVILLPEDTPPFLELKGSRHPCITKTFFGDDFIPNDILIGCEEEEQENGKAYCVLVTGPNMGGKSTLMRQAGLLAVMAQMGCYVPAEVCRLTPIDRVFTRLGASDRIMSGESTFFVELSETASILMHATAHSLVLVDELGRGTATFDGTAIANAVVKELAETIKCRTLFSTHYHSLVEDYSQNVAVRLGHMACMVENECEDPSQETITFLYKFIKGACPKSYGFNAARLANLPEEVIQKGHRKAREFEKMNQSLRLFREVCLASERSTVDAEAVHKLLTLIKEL

Molecule: 282-bp G-T heteroduplex with LOS I and LOS II
binding signal (% of binding released) [1]: > 70

stoichiometry N [2]: > 1 molecule of MutLα in the MutSα–MutLα complex
B1: human MutLα (MLH1·PMS2 heterodimer), wild type (complex)
chain 1: MSFVAGVIRRLDETVVNRIAAGEVIQRPANAIKEMIENCLDAKSTSIQVIVKEGGLKLIQIQDNGTGIRKEDLDIVCERFTTSKLQSFEDLASISTYGFRGEALASISHVAHVTITTKTADGKCAYRASYSDGKLKAPPKPCAGNQGTQITVEDLFYNIATRRKALKNPSEEYGKILEVVGRYSVHNAGISFSVKKQGETVADVRTLPNASTVDNIRSIFGNAVSRELIEIGCEDKTLAFKMNGYISNANYSVKKCIFLLFINHRLVESTSLRKAIETVYAAYLPKNTHPFLYLSLEISPQNVDVNVHPTKHEVHFLHEESILERVQQHIESKLLGSNSSRMYFTQTLLPGLAGPSGEMVKSTTSLTSSSTSGSSDKVYAHQMVRTDSREQKLDAFLQPLSKPLSSQPQAIVTEDKTDISSGRARQQDEEMLELPAPAEVAAKNQSLEGDTTKGTSEMSEKRGPTSSNPRKRHREDSDVEMVEDDSRKEMTAACTPRRRIINLTSVLSLQEEINEQGHEVLREMLHNHSFVGCVNPQWALAQHQTKLYLLNTTKLSEELFYQILIYDFANFGVLRLSEPAPLFDLAMLALDSPESGWTEEDGPKEGLAEYIVEFLKKKAEMLADYFSLEIDEEGNLIGLPLLIDNYVPPLEGLPIFILRLATEVNWDEEKECFESLSKECAMFYSIRKQYISEESTLSGQQSEVPGSIPNSWKWTVEHIVYKALRSHILPPKHFTEDGNILQLANLPDLYKVFERC
chain 2: MERAESSSTEPAKAIKPIDRKSVHQICSGQVVLSLSTAVKELVENSLDAGATNIDLKLKDYGVDLIEVSDNGCGVEEENFEGLTLKHHTSKIQEFADLTQVETFGFRGEALSSLCALSDVTISTCHASAKVGTRLMFDHNGKIIQKTPYPRPRGTTVSVQQLFSTLPVRHKEFQRNIKKEYAKMVQVLHAYCIISAGIRVSCTNQLGQGKRQPVVCTGGSPSIKENIGSVFGQKQLQSLIPFVQLPPSDSVCEEYGLSCSDALHNLFYISGFISQCTHGVGRSSTDRQFFFINRRPCDPAKVCRLVNEVYHMYNRHQYPFVVLNISVDSECVDINVTPDKRQILLQEEKLLLAVLKTSLIGMFDSDVNKLNVSQQPLLDVEGNLIKMHAADLEKPMVEKQDQSPSLRTGEEKKDVSISRLREAFSLRHTTENKPHSPKTPEPRRSPLGQKRGMLSSSTSGAISDKGVLRPQKEAVSSSHGPSDPTDRAEVEKDSGHGSTSVDSEGFSIPDTGSHCSSEYAASSPGDRGSQEHVDSQEKAPKTDDSFSDVDCHSNQEDTGCKFRVLPQPTNLATPNTKRFKKEEILSSSDICQKLVNTQDMSASQVDVAVKINKKVVPLDFSMSSLAKRIKQLHHEAQQSEGEQNYRKFRAKICPGENQAAEDELRKEISKTMFAEMEIIGQFNLGFIITKLNEDIFIVDQHATDEKYNFEMLQQHTVLQGQRLIAPQTLNLTAVNEAVLIENLEIFRKNGFDFVIDENAPVTERAKLISLPTSKNWTFGPQDVDELIFMLSDSPGVMCRPSRVKQMFASRACRKSVMIGTALNTSEMKKLITHMGEMDHPWNCPHGRPTMRHIANLGVISQN
notes: MLH1 subunit of human MutLα; PMS2 subunit of human MutLα; also called WT MutLα; source: insect cells, purified to homogeneity
